Experiment: soluble on expression in E. coli; label from the status in PepcDB or PDB records

| Sequence | soluble on expression in E. coli |
| --- | --- |
| MGIGKEIRLERIMNRETRKTIIVPMDHGVSSGPIEGIVNIREAVEKVAEGGANAVVLHKGMVRAGHRGRGRDIGLIVHLSASTDLSPRKNDKVLVCTVEEAIRLGADAVSIHVNIGAEGEREMLKDFGYVSKVCEEWQMPLLAMVYGRGPKIENQYDPKVVAHCARVGAELGADIVKVPYTGDPETFKLAIEGSPIPVVIAGGPKMKSEREVLEMVQGAMQAGAAGLSIGRNIFQAKDPAKMVRAMSLIVHEGKSVEEAFEILK | not soluble |
| MTVLSPSLPHAAGIDAALVENPWLGLRRSGRYFQNAETEALFARALGYARAGVCVHLAGPAGLGKTTLALRIAQALGRPVAFMTGNEWLGSRDFIGGEIGQTVTSVVDRYIQSVRRTEQSARIDWKESILGQAMRCGQTFIYDEFTRASPEANAALLSVLEEGVLVSTDGASRHQYIEAHPDFRVLLTSNPHEYQGVKAAPDALIDRMVTLRLEEPSAPTLAGIVALRSGLDPATARRIVDLILSVQRSGEMQAPPSMRTAILVARLAAPLRLAGRLSDAALAEIAADVLRGRGLEADAAAFEAKLAAPTPGETARLEHHHHHH | not soluble |
| SNAMTEARKIPKPSFPYGSPGELNSFLPYLLTRITHIWSSELNQALASEKLPTPKLRLLSSLSAYGELTVGQLATLGVMEQSTTSRTVDQLVDEGLAARSISDADQRKRTVVLTRKGKKKLAEISPLINDFHAELVGNVDPDKLQTCIEVLGEILKGKTDY | soluble |
| MSLLGGPGIELFRRLVEEYEREHDVPMADIAAALAVQCRGGEAFLMAPDPPLSRRNRDQRRDRPQRPKRRPDLTTYRVAVGKRHKIGPGAIVGAIANEGGLHRSDFGQIRIGPDFSLVELPAKLPRATLKKLAQTRISGVLIDLRPYRPPDAARRHNGGKPRRKHVGEGHHHHHH | soluble |
| MGHHHHHHSHMINQRMIHMKNTKLLLAIATSAALLTGCQNTHGIDTNMAISSGLNAYKAATLSDADAKAIANQGCAEMDSGNQVASKSSKYGKRLAKIAKALGNNINGTPVNYKVYMTSDVNAWAMANGCVRVYSGLMDMMNDNEIEGVLGHELGHVALGHSLAEMKASYAIVAARDAISATSGVASQLSRSQLGDIAEGAINAKYSRDKESEADDFSFDLLKKRGISTQGLVGSFETLASLDGGRTQSMFDSHPPSTERAQHIRDRIASGK | not soluble |
| MAMEIGEDEWKVCCGSSEFAKQMSTSGPLTSQEAIYTARDIWFNQVNVTDWLEAFSAHPQIGNTPSPSINSDFARRSVSEQSTAFATTSASALQELAEWNVLYKKKFGFIFIICASGRTHAEMLHALKERYENRPIVELEIAAMEQMKITELRMAKLFSDKAKVISETDSSSSPVSTKPQDRLRIIGGHLNVAAEAKAPKRSRPPITTHVLDVSRGAPAAGVEVHLEVWSGTTGPSFVHGGGGVWSSVGTSATDRDGRSGPLMDLVDALNPGTYRISFDTAKYSPGCFFPYVSIVFQVTESQKWEHFHVPLLLAPFSFSTYRGS | soluble |
| MKNTQLLTSLRYVLLGALTVTTSVVQAESIAITNATVYTVAKKGVLFQATVMVDEGKITAVYGKDEVPESLSADTIIDAKERILTPGFIATHNLLGLVEVGAVSDTRDSSDKDADITFDASLAFNPKSTLIAYARKGGITSSLVMPYGGEDVITGQSFVVNLSGDFDSVIMPQNAVIVSLGASGKGSRATKLQTLSNELEDAQKALAKAEKVKASSKKEKEEKEAETPSRSELVLNELLSGDKPLIAYADRATDILALLKLKQKFNLNLILAGASDAVLVSDEIAKANVVVMMSAIDNLPSSFDSLHNSLTNVAKLTDAGVKVIISNSGESYNINQLRFDAGVAVANGVAATTALAAVTANVADSFNLNSGRIAVGKNADLVLWSSDPFEISTKVDAMWINGQAMSLKSRQDALRQRYIVETDMPRAYTK | not soluble |
| MGSDKIHHHHHHMMAKGTLCVLDPASILVVAPHFKRRLSGVTSTVVQLIPQQRRRGLAIATLGPGLPETMPALTFAQMPALWKKPRGASHRVWHARRNLEMLVGVVLRDVLRMPLKLLFTSAAQRHHSRYTRWLISKMDAVVATSARSGSFLHVPHSVIRHGIDTELFHPPQGAEDRIAATNLPGDYLIGCFGRVRHQKGTDLFVKAMIELLPRYPGWTAVVSGRVTPEHKGFAEGLKAQIAAASLTERIVFLGEVEDIKPWYRRLTLYVAPSRNEGFGLTPLEAMASETVVVASDAGAYAELIAEGATGAVVAADAYAPLRDAIEPYLADPGRACLHGKAAVAHVRENFALAREAAGLEAVYSRLLGRPVIAPPAPQP | not soluble |
| SFPNRRIVTTVFNDEGIQFLVTRYIKALNPPQQLLDIFLHNSNATFDLIARFVSLIPFVPNTPDENDGSDIWMTSEHCISLAIGNKEEHAILLCNFFLYFGKKALVLLGTSVLEGHVAYVVTQETNEYLLWNPSTGQCYKQFDPFCPLKSVDCLFDDRNVWFNIQQNNTPMAVFFDYSKESFWKQLLPKNVQGTKIQSIQVTGFPIQMPYIDVQSIIDAVYQTGIHSAEFPQTEFALAVYIHPYPNNILSVWVYLASLVQHQ | soluble |
| MGSDKIHHHHHHMNNMEIWVVDDDRDYCELIVEMLQDEFKVSPFYGAADFRVALQTQKPDLLLMDINLPDTDGITLCRELQASNQEVAVLFVSGMNTLEERLKAYEVNAVDFIAKPFELKELLAKVHSVAHYVMKQRELIQAESVSRNMAFQSMTESSQYGCVLQFFRQCFLCNDHQTLADAFFDLMQQLNLNTCLEIRGENVEYFAPRHAAISPIESNILELLDKHGRLYDFGCRTICNDKHVSFLIKNMPINDEVLYGRLRDIIAVVVEGLEARVLDISRQQTLTQVFLDIESLIGDINVATLEHDEKFSAALINMTTEIRGSFHVLDMTIEQEDYFTALIERNLKEVKSASEAFTRLQSALGKVMDVLGGSVS | not soluble |
| MGSDKIHHHHHHMVEVVGVRFREAGHIYYFAPGKSEYIYNEKVLVESQQSKQLATVAIPKKTVDSDDLPEDLKPILNKATANDLEKEQKNLADAEAAKSIANEKIRAHDLKMKLVRVEYTFDRSKMIFYFTADGRIDFRELVKDLAAIFRTRIELRQIGVRDEAKILGGIGPCGRQLCCSTFLGDFMPVSIKMAKDQGLSLNPVKISGLCGRLMCCLKYENDEYEAAKKELPDYGKEVITPDGKGKVVGLNLLSRIVKVRLHGREIAADYDYEEIKEATAKVAAEKGDQNG | not soluble |
| MGSDKIHHHHHHVDQVNAYRNSAHLYDLDQRELVTADIPFYLEYAGSFGGGILELGCGTGRIAIPLAEAGHDITALDLSENMLAAFSAKLTNVAAGTKKKLALVQGNMADFSLRKTFDMIIAPFRAFQALTRAEDINGCLACMREHLNDGGIVIINVFRPFGTLDESWCYPETVQWERWDDATGSKVVKKHWGQRIDVENQIIYPGFAYEVMASNGVVERFADNLALKYYYYEQLTTLLQDAGFRIKEEYGWYDKSPIENGRELIFVCTR | not soluble |
| MAANGAKGRKVMRVLVVDNYDSFTYNLVQYLGELGAEPIVWRNDRFRLEEVEALDPDRILISPGPCTPFEAGLSVPLVQRYAPRYPILGVCLGHQAIGAAFGGKVVPAPVLMHGKVSPIHHDGTGVFRGLDSPFPATRYHSLAVVEVPEALVVNAWAEEAGGRTVMGFRHRDYPTHGVQFHPESYLTEAGKLILKNFLEDPWTR | soluble |
| MSNTVATMINKRNIMRNYIKIGVAGPVGAGKTALIEKLTREIASKYSVAVITNDIYTQEDAEFLTKNSLLPPERIMGVETGGCPHTAIREDASMNLEAVDEMVTRFPDVEIVFIESGGDNLSATFSPDLADVTIFVIDVAQGEKIPRKGGPGITRSDLLVINKTDLAPFVGADLSVMERDARRMRNGQPFIFTNLMKKENLDGVIGWIEKYALLKNVEEPASLVRLEHHHHHH | soluble |
| MIIMYAIGIGDNKEEVLKAYEKLKEEGIEVELIDNPKLLVDKLLDGEIDGAVRGSLSSSKVILYLRERIGKFYRASILKNPFTNGIFLLSPVGIDDISEDKNERIKDKIRIIEFASNFLKNYNIKAKVAVLSGGRLGDLGRNKVVDETIYEAEEIVEHFKGNVDIIHNGILIEEYLKDGYNIIIAVDGITGNLIFRCLGLICKIPGYGAVILSDKNVNFIDTSRNANWERYYNAIKFLIGGDFG | soluble |
| MGSDKIHHHHHHMTDRSSFIDTARQVVLDEARALDALSESLGDGFAEAVELILRTKGRVIVSGIGKSGHIGHKIAATLASTGTPAYFVHPAEASHGDLGMLSGDDVVLAISNSGEAPELANLLAFTRRFAIPLIGLSSKSESSLMQQADVHLLIPALGEACGFGMVPSISTTLTLAMGDALAIALMKYRDFRPENFRVFHPGGKLGARLSRVSDLMHGGEAVPLIAADTPMSEALLEISRKGFGVVGVTDGAGHLAGIVTDGDLRRHMSGLLDKTAAQVMTANPTTIAPDSLAEEAVAIMNARKITSLFVVDPAEPGVARGLLHIHDCLRVGLG | not soluble |
| MSETIEIDELVFSVKRSTRRRTVGVTVERDKSLVAHLPQGVALDVATRLIASKLLWVHQKLAEHGETARDDVFRIPEFVDGEGFHLLGKHYRLKLVDVPKNVTGVPSVRFEGDRILLRREQAASGGKRIEEYYTRAAHPYLNETVQRWKRIVGVEPGRFVQVMDLGYRWGSCSEDGTLNFHWRTMQLPPRIIEYVVVHELVHIKVPNHSEKFWKMIGSVMPDYESRKAWLKQKGGELLEHHHHHH | not soluble |
| MASINLIKSLKLYKEKIWSFDFSQGILATGSTDRKIKLVSVKYDDFTLIDVLDETAHKKAIRSVAWRPHTSLLAAGSFDSTVSIWAKEESADRTFEMDLLAIIEGHENEVKGVAWSNDGYYLATCSRDKSVWIWETDESGEEYECISVLQEHSQDVKHVIWHPSEALLASSSYDDTVRIWKDYDDDWECVAVLNGHEGTVWSSDFDKTEGVFRLCSGSDDSTVRVWKYMGDDEDDQQEWVCEAILPDVHKRQVYNVAWGFNGLIASVGADGVLAVYEEVDGEWKVFAKRALCHGVYEINVVKWLELNGKTILATGGDDGIVNFWSLEKAA | soluble |
| MSNEPESTQHKSALQGLKGYLSSQILGQEKLVDRLLIALLADGHLLVEGAPGLAKTKAIKDLAEGLEAEFHRIQFTPDLLPADITGTEIYRPETGTFVFQQGPIFHHLVLADEINRAPAKVQSALLEAMAERQVSVGRSTYDLPQLFLVMATQNPIEQEGTYPLPEAQLDRFLMHVKIGYPEASVERRILQQARGEALNGEARPERRVTQETIFAARQEILGLYMADAVEEYLVQLIMATRTPAKHDAELAEWISYGASPRGSIALDRCARAHAWLGGRDFVSPEDIQAVLFDVLRHRLILTFEAEAAGIDQDRVVQRILDVVAVALEHHHHHH | soluble |
| MKKMNHVLQVLMLSASLVASPFTYANEEKGLEIAQERKARDEGWGDSIATMEMILKNAQGESSTRLMRLKSLEVEGDGDKGLTIFDQPRDVTGTAFLNHSHTIGADDQWLYLPALKRVKRISSRNKSGPFMGSEFAYEDLSSFEIEKYRFNHLKDEKFNGQDVFVLEQIPTDKNSGYTKQVVWLDKAHYRPLKVEFYDRKGALLKTLTFANYKQYLDKYWRAHTMAMTNHQTGKSTELNTSDLRFQTGLEENDFNKNVLKRVK | not soluble |
| MGSDKIHHHHHHMRKKIVFIIRDLGYGGAQRQLITLVKNLDKQIFNTTVIFFYANGSLQKDLENNNIQTICLEKRGRWDIFGFLWRLMGHLKRIQPDSLHGYLSESNLLTIFLKPFFLSTSIIWGIRDSNISLDSYDWLDRLIFEIECLLSRFVDLIIVNSHAGQAYHLSHGFPAKKMVVIPNGIDTERFQPNSEAGLRVRTEWRISKDTILIGLIGRLDPMKDHPTFLKAVALLCKERENVCFVCVGIGTHEYAQELYQLAEELEVAEKVIWAGGRADMPDIYNALDITCSSSSYGEGFSNVIGEAMACGVPCVVTDVGDSAWIIDDTGIVVPPNNPEALKAGITSLINIISSKSYSSCHIRQRIISHFSVLNLSLKTQNSLLSINVL | not soluble |

Source: the DeepSol protein solubility set
